Assay results taken from patent US20190083587A1 (Novo Nordisk, published 2019).

T1: hTLT-1.126-162 (human)
T1 construct: Made by solid phase peptide synthesis; not glycosylated; also called TLT-1 stalk peptide; chain P
T1 peptide: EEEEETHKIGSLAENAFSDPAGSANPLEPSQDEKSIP

T2: hTLT-1 ECD-His (human, UniProt Q86YW5 16-162)
T2 construct: Extracellular domain of human TLT-1 with C-terminal His-6 tag; the range 16-168 is computed from these; also called TLT-1-His; His tagged human TLT1
T2 sequence: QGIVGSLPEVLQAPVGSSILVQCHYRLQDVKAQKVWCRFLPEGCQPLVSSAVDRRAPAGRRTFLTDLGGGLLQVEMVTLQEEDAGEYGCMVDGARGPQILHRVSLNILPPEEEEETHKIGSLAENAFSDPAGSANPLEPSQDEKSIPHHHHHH

T3: hTLT-1 ECD-HPC4 M91A (human, UniProt Q86YW5 16-162)
T3 construct: Built as m17; also called Ala mutant 24
T3 chain: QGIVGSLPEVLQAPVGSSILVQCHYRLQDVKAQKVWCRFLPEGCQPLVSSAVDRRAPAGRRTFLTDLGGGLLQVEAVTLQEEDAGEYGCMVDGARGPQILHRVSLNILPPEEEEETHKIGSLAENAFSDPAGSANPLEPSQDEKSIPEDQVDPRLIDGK

T4: hTLT-1 ECD-HPC4 L42A (human, UniProt Q86YW5 16-162)
T4 construct: Built as m17; also called Ala mutant 8
T4 chain: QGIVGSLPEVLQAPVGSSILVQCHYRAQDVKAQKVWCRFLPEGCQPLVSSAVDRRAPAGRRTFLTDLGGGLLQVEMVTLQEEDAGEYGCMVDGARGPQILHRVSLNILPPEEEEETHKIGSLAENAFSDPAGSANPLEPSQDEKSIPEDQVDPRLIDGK

T5: hTLT-1 ECD-HPC4 Q43A (human, UniProt Q86YW5 16-162)
T5 construct: Built as m17; also called Ala mutant 9
T5 chain: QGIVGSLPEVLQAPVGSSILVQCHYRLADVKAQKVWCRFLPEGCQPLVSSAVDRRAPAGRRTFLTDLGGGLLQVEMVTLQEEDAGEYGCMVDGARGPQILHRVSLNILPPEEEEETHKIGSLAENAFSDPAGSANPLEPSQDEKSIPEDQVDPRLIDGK

T6: hTLT-1 ECD-HPC4 R110A (human, UniProt Q86YW5 16-162)
T6 construct: Built as m17; also called Ala mutant 30
T6 chain: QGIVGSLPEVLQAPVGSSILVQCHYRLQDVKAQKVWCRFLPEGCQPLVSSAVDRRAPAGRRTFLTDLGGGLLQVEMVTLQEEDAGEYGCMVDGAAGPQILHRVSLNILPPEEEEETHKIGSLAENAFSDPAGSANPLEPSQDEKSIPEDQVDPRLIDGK

T7: hTLT-1 ECD-HPC4 K46A (human, UniProt Q86YW5 16-162)
T7 construct: Built as m17; also called Ala mutant 10
T7 chain: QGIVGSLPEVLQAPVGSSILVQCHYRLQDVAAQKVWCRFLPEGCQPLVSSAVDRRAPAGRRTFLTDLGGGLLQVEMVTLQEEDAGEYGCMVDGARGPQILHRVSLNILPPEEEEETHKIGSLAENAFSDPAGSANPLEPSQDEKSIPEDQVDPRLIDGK


Legend:
[1] = molecular target: T1, hTLT-1.126-162; test: crystal structure of the Fab0100:hTLT-1.126-162 complex; complex isolated by gel filtration
Method: The complex was subjected to gel filtration using a Superdex 200 HighLoad 26/60 (GE Healthcare) column eluted with PBS-buffer (pH 7.4) at a flow rate of 1 ml/min. Fractions corresponding to a volume of 3 ml were collected.
The crystal was allowed to soak for about 15 seconds, then flash frozen in liquid N₂ and during data collection kept at 100 K by a cryogenic N₂ gas stream. Crystallographic data were subsequently collected to 1.85 Å resolution at beam-line BL911-3 (Ursby, T. et al. (2004) AIP Conference Proceedings 705, 1241-1246) at MAX-lab, Lund, Sweden. Space group determination, integration and scaling of the data were made in the XDS software package. Cell parameters for the synchrotron data were determined to be 82.54, 65.32, 108.05 Å, 90°, 95.15° and 90°, for a, b, c, α, β and γ, respectively, and space group was determined to be C2. Rsym for intensities of the data set was calculated to be 6.7%.

[2] = molecular target: T2, hTLT-1 ECD-His; test: SPR Biacore, mAb immobilised directly, TLT-1 as analyte
Method: Method: The mAbs of interest were either immobilized directly to a CM5 chip or by capture via a human Fc capture mAb immobilized to a CM5 chip, while TLT-1-His was immobilized by capture via an anti-His mAb CM5 chip for analysis of Fabs.
mAb direct capture: The TLT-1 mAbs were immobilised to a level of approx 500-1000 RU on a CM5 chip (50 μg/ml diluted in Na-acetate, pH 4.0) using the standard procedure recommended by the supplier. Two-fold dilutions of TLT-1 from 200 nM to 0.2 nM were tested for binding to the mAbs. Running and dilution buffer: 10 mM HEPES, 150 mM, 0.005% p20, pH 7.4. Regeneration was obtained by 10 mM Glycine, pH 1.7. mAb capture via human Fc mAb: Human Fc mAb was immobilised to approx 10.000 RU. The mAb of interest was added (approx 100 nM). Two-fold dilutions of TLT-1 from 200 nM to 0.2 nM were tested. Running and dilution buffer: 10 mM HEPES, 150 mM, 0.005% p20, pH 7.4. Regeneration was obtained in 3 M MgCl₂.

[3] = molecular target: T3, hTLT-1 ECD-HPC4 M91A; test: SPR ProteOn, mAb captured by anti-hFc, 100 nM mutant, signal 10 s after injection
Method: (§1) Each antibody was diluted in 10 mM sodium acetate pH 5.0 to a concentration of 50 μg/ml, and was immobilized to an individual flow cell at 30 μl/min for 240 s. The antibodies were immobilized to flow cells A1-A6 (horizontal direction). After immobilization, the active sites on the flow cell were blocked with 1 M ethanolamine. The final immobilization level of capture antibody typically ranged from approximately 9,000 to 10,000 RU in one experiment. Capture of the anti-TLT-1 antibodies mAb0023, mAb0051, mAb0061 and mAb0062 was conducted by diluting to 0.5 μg/ml into HBS-EP buffer (10 mM HEPES, 150 mM NaCl, 3 mM EDTA, 0.05% surfactant P20, pH 7.4) and injected at 30 μl/min for 60 s in vertical direction, creating interspot reference points with only anti-human Fc antibodies.
(§2) The final capture level of test antibodies typically ranged from approximately 200 to 300 RU in one experiment. Binding of wt or Ala mutant hTLT-1 ECD-HPC4 protein was conducted by injecting over parallel flow cells in horizontal direction to allow for comparative analyses of binding to different captured anti-TLT-1 antibodies relative to binding to the interspot references. Each hTLT-1 ECD-HPC4 protein was diluted to 100 nM, based on the calculated average Mw, into HBS-EP buffer and injected at 30 μl/min for 240 s. The GLM chip was regenerated after each injection cycle of analyte via one 18 s injection of 1 M Formic acid followed by a 18s injection of 50 mM NaOH at 100 μl/min. This regeneration step removed the anti-TLT-1 antibody and any bound TLT-1 from the immobilized capture antibody surface, and allowed for the subsequent binding of the next test sample pair.
(§3) Data analysis was performed using the ProteOn Manager™ Software. No significant non-specific binding to the interspot control surfaces was observed. Binding curves were processed by double referencing (subtraction of interspot control surface signals as well as blank buffer injections over captured anti-TLT-1 antibodies). This allowed correction for instrument noise, bulk shift and drift during sample injections. Binding signal at 10 s after stop of analyte injection was normalized to level of captured anti-TLT-1 antibody and presented as binding relative to wt hTLT-1 ECD-HPC4 protein.

[4] = molecular target: T4, hTLT-1 ECD-HPC4 L42A; test: as above
Method: as §1, §2, §3

[5] = molecular target: T5, hTLT-1 ECD-HPC4 Q43A; test: as above
Method: as §1, §2, §3

[6] = molecular target: T6, hTLT-1 ECD-HPC4 R110A; test: as above
Method: as §1, §2, §3

[7] = molecular target: T7, hTLT-1 ECD-HPC4 K46A; test: as above
Method: as §1, §2, §3

Binder	binding result [1]	Kd [2] [nM]	koff [2] [s⁻¹]	kon [2] [M⁻¹ s⁻¹]	binding relative to wt hTLT-1 ECD-HPC4 [3]	binding relative to wt hTLT-1 ECD-HPC4 [4]	binding relative to wt hTLT-1 ECD-HPC4 [5]	binding relative to wt hTLT-1 ECD-HPC4 [6]	binding relative to wt hTLT-1 ECD-HPC4 [7]
Fab0100 (Fab, V domains shown, also called anti-TLT-1 Fab; identical to Fab0061) VH: EVKLLESGGGLVQPGGSLKLSCAASGFDFSRYWMTWVRQAPGKGLEWIGEINPDSSTINYNPSLKDKFIISRDNAKNTLYLQMSEVRSEDTALYYCASGVFTSWGQGTLVTVSA VL: DVVMTQTPLSLPVSLGDQASISCRSSQSLVHRNGNTYFHWALQKPGQSPKLLIYKVSNRFSGVPDRFSGSGSGTDFTLKISRVEAEDLGVYFCSQSTHVPYTFGGGTKLEIKR	binds	–	–	–	–	–	–	–	–
mAb0023 (antibody, V domains shown, Mouse VH/VL, human IgG4 / kappa; also called antiTLT-1 0023mab) VH: EVRLVESGGGLVQPGGSLKLSCATSGFTFSDYFMYWIRQTPEKRLEWVAYISNGGDSSSYPDTVKGRFTISRDNAKNTLYLQMSRLKSEDTAMYYCATNKNWDDYYDMDYWGQGTSVTVSS VL: DIVVSQSPSSLAVSAGEKVTMSCKSSQSLLNSRTRKNYLAWYQQKPGQSPKLLIYWASTRESGVPDRFTGSGSGTDFTLTISSVQAEDLAVYYCKQSYNLLTFGAGTKLELKR	–	4.36	0.00125	287000	< 0.4 fraction of wt	< 0.2 fraction of wt	< 0.2 fraction of wt	< 0.2 fraction of wt	< 0.2 fraction of wt
